Values quoted from earlier work in publication PMC11139829.
Several values for one entry are separate records, joined by “and”; a condition that tells them apart may be missing. Equal values may be shown once. Read-outs that look alike come from different tables or passages of the source.

Columns and labels:
[1] = target: β-clamp (Escherichia coli) (UniProt P0A988)
[2] = target: β-clamp (Escherichia coli) (UniProt P0A988); experiment: SPR
[3] = target: β-clamp (Escherichia coli) (UniProt P0A988); experiment: ITC
[4] = target: β-clamp (Escherichia coli) (UniProt P0A988); experiment: Fluorescence
[5] = target: β-clamp (Escherichia coli) (UniProt P0A988); experiment: SEC
[6] = target: β-clamp (Escherichia coli) (UniProt P0A988); experiment: ITC; remark: listed apart in the source
[7] = target: β-clamp (Escherichia coli) (UniProt P0A988); experiment: ITC; remark: listed apart in the source

Chain of UniProt P0A988 (P0A988 whole entry): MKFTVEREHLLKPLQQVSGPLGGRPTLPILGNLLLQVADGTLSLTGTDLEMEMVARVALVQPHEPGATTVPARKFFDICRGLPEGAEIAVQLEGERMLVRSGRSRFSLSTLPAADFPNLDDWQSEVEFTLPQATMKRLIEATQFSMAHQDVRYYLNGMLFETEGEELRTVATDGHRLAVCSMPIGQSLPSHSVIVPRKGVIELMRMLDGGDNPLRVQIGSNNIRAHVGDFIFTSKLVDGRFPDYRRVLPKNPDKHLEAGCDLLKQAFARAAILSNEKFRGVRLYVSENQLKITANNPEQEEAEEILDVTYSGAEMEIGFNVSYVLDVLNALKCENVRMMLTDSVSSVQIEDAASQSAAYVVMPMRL
Chain of Pol III α (P10443 whole entry): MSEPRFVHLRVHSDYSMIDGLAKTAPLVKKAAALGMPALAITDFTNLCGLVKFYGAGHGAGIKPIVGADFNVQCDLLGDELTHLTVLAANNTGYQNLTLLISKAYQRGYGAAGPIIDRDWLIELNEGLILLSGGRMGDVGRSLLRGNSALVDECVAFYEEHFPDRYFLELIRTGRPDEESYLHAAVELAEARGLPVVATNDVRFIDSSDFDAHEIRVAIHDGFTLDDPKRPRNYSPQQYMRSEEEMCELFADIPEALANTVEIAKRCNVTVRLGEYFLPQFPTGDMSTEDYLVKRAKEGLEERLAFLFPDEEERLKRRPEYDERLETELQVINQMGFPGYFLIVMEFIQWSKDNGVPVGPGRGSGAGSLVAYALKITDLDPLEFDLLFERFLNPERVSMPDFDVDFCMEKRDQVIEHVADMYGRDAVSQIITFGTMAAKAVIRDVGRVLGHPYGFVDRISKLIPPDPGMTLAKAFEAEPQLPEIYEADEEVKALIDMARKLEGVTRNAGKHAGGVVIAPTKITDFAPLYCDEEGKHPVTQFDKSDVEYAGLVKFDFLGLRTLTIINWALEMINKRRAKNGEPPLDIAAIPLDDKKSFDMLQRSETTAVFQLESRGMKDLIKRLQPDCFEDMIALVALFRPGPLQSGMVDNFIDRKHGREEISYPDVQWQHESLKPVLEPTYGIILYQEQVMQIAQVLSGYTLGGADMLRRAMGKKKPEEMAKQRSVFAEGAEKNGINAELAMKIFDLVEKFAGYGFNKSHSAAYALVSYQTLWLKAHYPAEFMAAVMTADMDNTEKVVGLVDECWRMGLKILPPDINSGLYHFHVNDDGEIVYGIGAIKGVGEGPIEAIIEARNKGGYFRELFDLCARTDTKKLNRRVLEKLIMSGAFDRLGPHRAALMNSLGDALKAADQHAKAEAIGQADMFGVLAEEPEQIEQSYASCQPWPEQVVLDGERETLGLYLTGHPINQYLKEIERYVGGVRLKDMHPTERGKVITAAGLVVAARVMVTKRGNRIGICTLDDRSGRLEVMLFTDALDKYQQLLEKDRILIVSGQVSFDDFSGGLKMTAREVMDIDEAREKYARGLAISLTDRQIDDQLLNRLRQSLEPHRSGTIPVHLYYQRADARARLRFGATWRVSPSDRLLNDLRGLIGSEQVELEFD

Kd [2] | Kd [3] [µM] | Kd [4] | Substance | Kd [5] [µM] | further results
0.0316 µM |  |  | Pol II (from UniProt P21189) |  | Kd [1]: 0.12 µM
 | 1.7 | 3.5 µM | Pol II CBM peptide |  | 
 |  | 0.051 µM and 0.05 µM | Pol III core (from UniProt P10443) | < 0.005 | 
 |  |  | Pol III α + ε (from UniProt P10443) | 0.3 | 
 | 1.42 | 3.2 µM and 3 µM | Pol III α C-terminal CBM peptide |  | Kd [6]: 3.95 µM; Kd [7]: 3.06 µM
2.7 µM | > 15 |  | Pol III α internal CBM peptide |  | 
210 µM |  |  | Pol III ε peptide |  | 

Substance | Kd [2] | Kd [3] [µM] | Kd [4] | Kd [5] [µM] | further results
Pol III α (from UniProt P10443) | 0.108 µM and 0.8 µM | 1.5 | 0.11 µM | 1.2 | 
